According to article PMC9887155, “Kinetics of cone specific G-protein signaling in avian photoreceptor cells” (Frontiers in Molecular Neuroscience, 2023):
“And” between values parts separate entries of the source, which are not always exact repeats. Equal entries are not always repeated. Where two headings read alike, the source gives them in different places. Ends that are not written are not given here.

What was measured:
[1] = biological target: Gtα/Giα chimera (α-subunit of the cone specific heterotrimeric G protein of European robin, chimera with Giα) (European robin (Erithacus rubecula)); test: FRET or BRET; in solution: intrinsic Trp (excitation 280 nm) to dansyl on the peptide, emission 400–550 nm; peptide and Gtα/Giα each 16.7 μM; 80 mM Hepes pH 7.4, 40 mM KCl, 150 mM NaCl, 10 mM MgCl2, 10 μM GDP; 30 min on ice
[2] = biological target: Gtα/Giα with a C-terminus truncated by six amino acids (European robin (Erithacus rubecula)); test: SPR; Gt-3AA or Gt-6AA immobilised on CM5 (3.1–4.2 ng/mm^2); LWO2 injected at 120 nM (Gt-3AA) or 100 nM (Gt-6AA); global fit, Langmuir 1:1 model; apparent KD; three sets each
[3] = biological target: Gtα/Giα with a C-terminus truncated by three amino acids (European robin (Erithacus rubecula)); test: as above
[4] = biological target: Gtα/Giα chimera (α-subunit of the cone specific heterotrimeric G protein of European robin, chimera with Giα) (European robin (Erithacus rubecula)); test: SPR; kinetics: Gtα/Giα immobilised on CM5 (2.6–3.4 ng/mm^2); LWO2 injected at 5 to 150 nM in random order; global fit, Langmuir 1:1 model; apparent KD from kd/ka; 12 sets; same running buffer
[5] = biological target: Gtα/Giα with a C-terminus truncated by six amino acids (European robin (Erithacus rubecula)); test: SPR; Gt-3AA or Gt-6AA immobilised on CM5 (3.1–4.2 ng/mm^2); LWO2 injected at 120 nM (Gt-3AA) or 100 nM (Gt-6AA); global fit, Langmuir 1:1 model; apparent KD; three sets each; remark: listed apart in the source
[6] = biological target: Gtα/Giα with a C-terminus truncated by three amino acids (European robin (Erithacus rubecula)); test: as above; remark: listed apart in the source

Row | decrease of dansyl fluorescence emission (FRET) on adding Gtα/Giα (relative fluorescence counts) [1] | Kd [2] | koff [2] | kon [2] | Kd [3] | koff [3] | kon [3] | Kd [4] | koff [4] | kon [4] | Kd [5] | Kd [6] | Binder
1 | 14000 | – | – | – | – | – | – | – | – | – | – | – | CGAGAWERWFVVCKPFGNIKFDGK-NH2 (cysteine pairing not given here; also: dansyl coupled to free amino groups) [dansylated peptide LWO2]
2 | – | 50 nM | 0.00093 s⁻¹ | 18600 M⁻¹ s⁻¹ | 8.7 nM | 0.000937 s⁻¹ | 108000 M⁻¹ s⁻¹ | 15.1 nM and 21.4 nM and 3 to 41 nM | 0.000812 s⁻¹ | 53600 M⁻¹ s⁻¹ | 34.5 nM | 7.3 nM | CGAGAWERWFVVCKPFGNIKFDGK-NH2 (cysteine pairing not given here) [peptide LWO2 (second cytoplasmic loop of long-wavelength-sensitive opsin of European robin)]
